These results are taken from paper PMC6234862, “The Structure of the Human Respiratory Syncytial Virus M2-1 Protein Bound to the Interaction Domain of the Phosphoprotein P Defines the Orientation of the Complex” (mBio, 2018).

Where no end group is shown, it is not given here. fluorescein = fluorescein label at the peptide N-terminus

First the molecules themselves.
T1: M2-1 (Human respiratory syncytial virus …, UniProt P04545 1-194)
T1 sequence: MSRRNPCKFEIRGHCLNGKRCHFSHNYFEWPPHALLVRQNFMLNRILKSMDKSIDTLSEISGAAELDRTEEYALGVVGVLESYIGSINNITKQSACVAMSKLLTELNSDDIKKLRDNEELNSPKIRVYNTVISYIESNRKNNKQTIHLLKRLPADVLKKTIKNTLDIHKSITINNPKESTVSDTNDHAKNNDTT

B1: Human respiratory syncytial virus (HRSV) M2-1 protein, full-length native tetramer (natural protein)
chain: T1 sequence
notes: HRSV M2-1 protein, strain A2, M2-1 ORF; 194 amino acids; Also used here as the wild-type M2-1 of the minigenome rows, where it was expressed from a plasmid in BSRT7 cells; also called native M2-1; tetrameric M2-1; source: E. coli BL21(DE3) Gold, purified (glutathione Sepharose, on-column PreScission cleavage, SP Sepharose; Superdex 75 for crystallization); not shown: GST, N-terminal, cleaved
B2: P90-110 peptide, unlabeled (residues 90 to 110 of HRSV P) (peptide, UniProt P03421 90-110, looked up)
peptide: DPTPSDNPFSKLYKETIETFD
notes: HRSV phosphoprotein P, strain A2, residues 90-110; residues 97 to 109 seen in the density; also called P peptide; source: synthetic peptide (ProteoGenix)
B3: Fluorescein-labeled P90-110 peptide (peptide, UniProt P03421 90-110, looked up)
peptide: fluorescein-DPTPSDNPFSKLYKETIETFD
notes: HRSV phosphoprotein P, residues 90-110; Strain A2 is stated for the unlabeled peptide; source: synthetic peptide (ProteoGenix)
B4: GST-P90-110 (domain or fragment, UniProt P03421 90-110, looked up)
chain: DPTPSDNPFSKLYKETIETFD
notes: HRSV phosphoprotein P, strain A2, residues 90-110; pGEX-6P-2 construct; also called P90–110 (GST fusion); not shown: GST, N-terminal, kept
B5: GST-P90-160 (domain or fragment)
chain: DPTPSDNPFSKLYKETIETFDNNEEESSYSYEEINDQTNDNITARLDRIDEKLSEILGMLHTLVVASAGPT
notes: HRSV phosphoprotein P, strain A2, residues 90-160; pGEX-6P-2 construct; not shown: GST, N-terminal, kept

The target in data set [1] is GST-P1-241 (full-length HRSV phosphoprotein P fused to GST) (human respiratory syncytial virus, strain A2) (UniProt P03421).
In data set [2] the target is T2, GST-P1-241 (full-length HRSV phosphoprotein P fused to GST) (human respiratory syncytial virus, …, UniProt P03421 1-241).
T2 construct: pGEX-6P-2 construct; Also used here as the wild-type P of the minigenome rows, where P was expressed from a plasmid in BSRT7 cells (no GST told there); also called WT P; not shown: GST, N-terminal, kept
As to the kind of experiment: pull-down; GST-P constructs from clarified E. coli lysates held on glutathione Sepharose 4B and washed; 1 mg purified M2-1 added, room temperature, 5 min; 25 mM Tris/HCl pH 7.4, 150 mM NaCl, 1 mM DTT; SDS-PAGE, Coomassie staining. As to conditions: both partners purified.

Data set [3] deals with the molecule itself. In words: crystal structure; M2-1 tetramer mixed with P90-110 in a 1:1 molar ratio, concentrated to 8 mg/ml; sitting drop vapor diffusion at 18°C; 0.2 M trimethylamine N-oxide dihydrate, 0.1 M Tris-HCl pH 8.5, 2% PEG MME 2000; 2.4 Å.
Data set [4] concerns the target B2. Described as above. The note with it: both partners purified.
Data set [5] addresses B1. Described as above. As to conditions: both partners purified.
For data set [6], the target named is B1. In words: fluorescence polarisation; fluorescence anisotropy, direct binding; 10 nM fluorescein-labeled P90-110, M2-1 0.1 nM to 300 μM; 20 mM Tris-Cl pH 7.5, 150 mM NaCl, 0.01% Triton X-100; 30 min at room temperature; 384-well; triplicate; apparent. As to conditions: both partners purified.
Data set [7] addresses B1. As to the kind of experiment: pull-down; GST-P constructs from clarified E. coli lysates held on glutathione Sepharose 4B and washed; 1 mg purified M2-1 added, room temperature, 5 min; 25 mM Tris/HCl pH 7.4, 150 mM NaCl, 1 mM DTT; SDS-PAGE, Coomassie staining. The note with it: both partners purified.
Another data set addresses T1, M2-1. In words: fluorescence anisotropy competition; displaces 10 nM fluorescein-P90-110 peptide from 1 uM M2-1; 20 mM Tris-Cl pH 7.5, 150 mM NaCl, 0.01% Triton X-100, room temperature, 30 min. As to conditions: protein: recombinant; tags: GST removed by PreScission protease; chain copies: 4; single strand. A general note: Polarisation of emitted light reports the rotation of a fluorescent probe.

Consider “HRSV M2-1 L148A (from UniProt P04545 1-194) (natural protein)”, for which the HRSV minigenome assay, eGFP fluorescence in BSRT7 cells relative to WT M2-1 in data set [1] is 30 % of WT M2-1.

For the molecule “HRSV M2-1 R126E (from UniProt P04545 1-194) (natural protein)”, the HRSV minigenome assay, eGFP fluorescence in BSRT7 cells relative to WT M2-1 in data set [1] was 30 % of WT M2-1.

As a reminder, the stoichiometry N is the number of molecules, sites or subunits per partner or assembly. In the case of B1, the binding result in data set [2] was “binds”. Also, the “stoichiometry N” value came out at 4 in data set [3] and 1 in data set [4].

For B2, the binding result in data set [5] is given as “binds”.

Regarding B3, the Kd in data set [6] came to 7.5 µM.

On to B4, for which the binding result in data set [7] is given as “binds”.

A word on the IC50: it is the midpoint of a concentration-inhibition curve. On to AAAAAAAAAAAAA (ssRNA) [A13 (poly(A) RNA 13-mer)], for which the IC50 with M2-1 is 1.7 µM.

As to B5, the binding result in data set [7] is “binds”.
